± gives the uncertainty stated by the source.

The series can be described thus: amyloid nucleation score (Sup35N fusion, yeast selection) (log enrichment); library NNK3; higher = more nucleation; inactive = no reads after selection. A digest of the protocol: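 For the nucleation score, DiMSum gave the log enrichment of output over input reads, centred on the mode score of non-aggregating sequences. Psi-negative yeast expressing Sup35N fused to peptides of 20 random codons were induced with 100 μM copper sulfate for 24 hours and grown 7 days at 30°C on medium lacking adenine and uracil. Input and output plasmid inserts were Illumina-sequenced, and sequences with under 100 input reads were excluded.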
For IRVMA, the amyloid nucleation score entry was “inactive”.

IRVSVVRSICMQSGRCEYQA showed an amyloid nucleation score of 1.21 ± 0.15.

Regarding IRYPVRV, the amyloid nucleation score result is “inactive”.

For ISDHTLAGIIFC, the amyloid nucleation score entry was “inactive”.

ISFLADYRQPSVKFVGGYVM: the amyloid nucleation score result was “inactive”.

Take ISGHGMKAVMSVDHSLY: the amyloid nucleation score result was “inactive”.

The substance ISGKSHSFCCVTLFHLREGI came in with an amyloid nucleation score of 1.12 ± 0.17.

In the case of ISINMRAGMDG, the amyloid nucleation score result was “inactive”.

Take ISISLLFGMTFTSFSRLIHF: the amyloid nucleation score turned out to be 1.42 ± 0.11.

Take ISIVKGCAFGLLSTFMATPS: the amyloid nucleation score worked out at 0.079 ± 0.75.

For the substance ISKLVY, the amyloid nucleation score result is “inactive”.

As for ISLDLG, the amyloid nucleation score entry was “inactive”.

With ISLLTVHTVSVTF, the amyloid nucleation score entry was “inactive”.

As to ISLVGFHVKLVFL, the amyloid nucleation score amounted to 2.11 ± 0.09.

As for ISMFCMIGFEVW, the amyloid nucleation score entry was “inactive”.

As to ISNHLVVEYVRWIKSKLLGR, the amyloid nucleation score entry is “inactive”.

Turning to ISNSLSIEGLAY, the amyloid nucleation score result was “inactive”.

With ISPVRRWPQLLIYAMVTGGQ, the amyloid nucleation score result was “inactive”.

The substance ISQCVCSSYA showed an amyloid nucleation score of -0.265 ± 0.7.

Turning to ISQQTFNFALSMCTSPASRI, the amyloid nucleation score entry was “inactive”.

For ISRSYCCVYT, the amyloid nucleation score result is “inactive”.

Turning to ISSFCRGLVAFEPCWFGLEK, the amyloid nucleation score result was “inactive”.

For ISSPDSTTIRNDVSD, the amyloid nucleation score result was “inactive”.

ISTARCNLLCRCWLRIYYND: the amyloid nucleation score entry was “inactive”.

In the case of ISTCMMFLF, the amyloid nucleation score entry is “inactive”.

Turning to ISTIRYNISYANAYYSSRQG, the amyloid nucleation score came to 0.699 ± 0.21.

As for ISTKGITTRSLLDFKILCIT, the amyloid nucleation score result was “inactive”.

As for ISVTNGIMMVPLNGSNLFPS, the amyloid nucleation score is -0.166 ± 0.62.

Regarding ITCCM, the amyloid nucleation score entry was “inactive”.

ITFVRGWVFDLQFNATE yielded an amyloid nucleation score of 0.55 ± 0.37.

Substance ITICVSIF gave an amyloid nucleation score of 1.75 ± 0.072.

As for ITLLYALVLFFTWNVSG, the amyloid nucleation score entry was “inactive”.

Take ITNYLWGGKGHRNKVLSNSC: the amyloid nucleation score result is “inactive”.

With ITSCRWVALKYLWSVFSLLI, the amyloid nucleation score entry is “inactive”.

For ITSGFDVEKCGNVNLSWEVW, the amyloid nucleation score entry is “inactive”.

As for ITTVRAYEALTWNMFWVQCV, the amyloid nucleation score result was “inactive”.

On to ITVCYMNKIWLK, for which the amyloid nucleation score entry was “inactive”.

For IVCMLQFEVVVLHACRFESK, the amyloid nucleation score result was “inactive”.

For the substance IVDGWR, the amyloid nucleation score entry was “inactive”.

As to IVEHIFDRGVSLEVMMMCYR, the amyloid nucleation score result is “inactive”.

Consider IVFMRLRMRVICPLCSVRLS, for which the amyloid nucleation score was found to be 0.385 ± 0.2.

As for IVGLDLCVHWQYLQVRLYII, the amyloid nucleation score entry was “inactive”.

As for IVGYERATFVLRSYRFEKVS, the amyloid nucleation score result was “inactive”.

On to IVNLL, for which the amyloid nucleation score result is “inactive”.

On to IVTLNYQLMYKMPKLLWSSN, for which the amyloid nucleation score result was “inactive”.

Substance IVWPIIRAHS came in with an amyloid nucleation score of -0.313 ± 0.93.

For IVYLRKPCYNW, the amyloid nucleation score entry was “inactive”.

IWIGFPFLSSSGGPMYPL: the amyloid nucleation score entry is “inactive”.

Consider IWLTWTSEYCTIFGFVLPVV, for which the amyloid nucleation score entry is “inactive”.

For IWNLWFRTFCT, the amyloid nucleation score was found to be 0.519 ± 0.25.

IWPVESWLWHVLWYLVFKI came in with an amyloid nucleation score of 0.49 ± 0.17.

As to IWPWSFALIMS, the amyloid nucleation score entry is “inactive”.

As to IWTDDWFFVAVSDGKVSRLV, the amyloid nucleation score entry was “inactive”.

Take IYALDNHGTCGRGHAFYNMV: the amyloid nucleation score entry was “inactive”.

Take IYAQELLSVANLLRFL: the amyloid nucleation score result is “inactive”.

IYAVSCVCVGIYGTIRLTSG registered an amyloid nucleation score of 0.017 ± 0.23.

In the case of IYCKVVALKRFHWMEAYA, the amyloid nucleation score entry is “inactive”.

Turning to IYEVVMVCISESLFLLMVKG, the amyloid nucleation score entry was “inactive”.

Take IYKSQMLEFVEVVRSYMPVQ: the amyloid nucleation score result was “inactive”.

Take IYLLYNPCFRMRYLFCMLRG: the amyloid nucleation score result is “inactive”.

As for IYLMVFNCMFEVTFRLSVES, the amyloid nucleation score result was “inactive”.

As for IYMRRESGVLGEQ, the amyloid nucleation score entry was “inactive”.

As for IYPLAKFSLHLVYTDRVSIF, the amyloid nucleation score stood at 0.352 ± 0.19.

Turning to IYPLV, the amyloid nucleation score result was “inactive”.

IYSALYLYRTPKSVYQVTQS came in with an amyloid nucleation score of -0.575 ± 1.

Take IYVQNSTANKR: the amyloid nucleation score entry is “inactive”.

IYVRLMSFH registered an amyloid nucleation score of 0.452 ± 0.15.

IYVVACGSR: the amyloid nucleation score entry is “inactive”.

Turning to IYYNHVVI, the amyloid nucleation score result is “inactive”.

With IYYPHTFIWDFVDEGVAPHY, the amyloid nucleation score was 1.56 ± 0.12.

For the substance KAGVRKRKAER, the amyloid nucleation score result was “inactive”.

For the substance KANDFTVFLRRVCLLNRVNA, the amyloid nucleation score entry is “inactive”.

KAQAFLWPVPDIQ showed an amyloid nucleation score of -0.571 ± 1.9.

With KCRVG, the amyloid nucleation score entry was “inactive”.

Take KCSRDRWQIVKMFMRMTVAI: the amyloid nucleation score entry is “inactive”.

On to KDELCH, for which the amyloid nucleation score stood at 1.81 ± 0.11.

In the case of KDIFYVAGDR, the amyloid nucleation score entry was “inactive”.

Regarding KDLDGVLFGNANWKIICEL, the amyloid nucleation score result is “inactive”.

As to KDMIYSHDKLKFQKKNKHMQ, the amyloid nucleation score result was “inactive”.

Take KDVRVWRLFRLD: the amyloid nucleation score result is “inactive”.

As for KDVYCRGVGG, the amyloid nucleation score result was “inactive”.

Take KEAVFIFSTHSGFLALFCMM: the amyloid nucleation score result was “inactive”.

In the case of KEDCGGQVNKTSGASVSSLC, the amyloid nucleation score result is “inactive”.

KEVMFR gave an amyloid nucleation score of 1.64 ± 0.12.

In turn, KFDGLYNSFTVMNFAIMVYE came in with an amyloid nucleation score of 1.65 ± 0.12.

On to KFGEAWIIPRDRVMEVFEW, for which the amyloid nucleation score entry is “inactive”.

Take KFTMTPWDPLCLCVRSDIDL: the amyloid nucleation score entry was “inactive”.

KGAFEMRG: the amyloid nucleation score was -0.277 ± 1.1.

KGFDRMMGVH: the amyloid nucleation score result is “inactive”.

With KGFFFCRTYVSSFWTKIGIF, the amyloid nucleation score result was “inactive”.

As to KGFNSALLMWVLYINKQ, the amyloid nucleation score result was “inactive”.

Consider KGLMVNRELMGSWSRPGCSY, for which the amyloid nucleation score result was “inactive”.

As for KGLVYSELNYYLLSWY, the amyloid nucleation score result was “inactive”.

For KGPRSGLVYGSSDHVFLA, the amyloid nucleation score result is “inactive”.

KGQDCNVLNSNYESSIVGDL: the amyloid nucleation score entry was “inactive”.

As to KGSSC, the amyloid nucleation score result is “inactive”.

As for KGSSSSIDTIFLYRGYFSIA, the amyloid nucleation score result was “inactive”.

KGVKYMDGH gave an amyloid nucleation score of 0.303 ± 0.2.

Consider KGYSKCEDPMLECYYCTPVN, for which the amyloid nucleation score entry was “inactive”.

As to KHILFE, the amyloid nucleation score entry is “inactive”.
